Measured values published in IntAct's records for PubMed 19262567.

What was measured:
[1] = molecular target: if4e_human EIF4E (UniProt P06730)
[2] = molecular target: if4e_human EIF4E (UniProt P06730); remark: listed apart in the source

Sequence of if4e_human EIF4E (P06730 whole entry): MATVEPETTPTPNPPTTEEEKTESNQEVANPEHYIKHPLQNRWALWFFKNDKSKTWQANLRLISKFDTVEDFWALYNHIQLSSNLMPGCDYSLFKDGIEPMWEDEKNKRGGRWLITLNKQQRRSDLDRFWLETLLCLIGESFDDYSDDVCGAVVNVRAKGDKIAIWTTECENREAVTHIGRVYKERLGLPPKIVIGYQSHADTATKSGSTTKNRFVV

Row | Substance | effect of a mutation on the interaction [1] | effect of a mutation on the interaction [2]
1 | Leucine-rich PPR motif-containing protein, mitochondrial (Homo sapiens) (from UniProt P42704) Y583A | disrupting interaction | 
2 | Leucine-rich PPR motif-containing protein, mitochondrial (Homo sapiens) (from UniProt P42704) Y441A |  | disrupting interaction
